Our source for the Classification values is patent US20050282743A1, “Molecular interactions in cells” (Arbor Vita Corporation, priority 2001, published 2005).

Like-named read-outs stand apart in the source and are kept apart here.

Holding throughout (assay): G' assay
The target in assay [1] is T1, GST-ZO-2 PDZ domain 2 (Homo sapiens (Human)), Q9UDY2.
T1 chain: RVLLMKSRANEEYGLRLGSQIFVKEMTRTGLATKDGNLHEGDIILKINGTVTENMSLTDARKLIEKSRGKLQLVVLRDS

The target of assay [2] is T2, GST-X-11 beta PDZ domain 2 (Rattus norvegicus (Rat)), O35431.
T2 chain: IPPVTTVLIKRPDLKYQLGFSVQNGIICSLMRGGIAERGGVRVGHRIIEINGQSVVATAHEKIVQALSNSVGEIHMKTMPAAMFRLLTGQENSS

Assay [3] has as its target T3, GST-MINT1 PDZ domain 1 (Mus musculus (Mouse)), B2RUJ5.
T3 chain: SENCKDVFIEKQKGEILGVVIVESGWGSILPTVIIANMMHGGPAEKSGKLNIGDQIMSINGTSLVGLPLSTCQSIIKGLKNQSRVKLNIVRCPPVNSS

Assay [4] has as its target T4, GST-MUPP1 PDZ domain 13 (Homo sapiens (Human)), O75970.
T4 chain: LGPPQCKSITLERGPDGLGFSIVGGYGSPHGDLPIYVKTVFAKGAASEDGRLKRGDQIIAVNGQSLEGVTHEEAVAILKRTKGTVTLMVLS

In assay [5] the target is T5, GST-ZO-1 PDZ domain 2 (Rattus norvegicus (Rat)), A0A0G2.
T5 chain: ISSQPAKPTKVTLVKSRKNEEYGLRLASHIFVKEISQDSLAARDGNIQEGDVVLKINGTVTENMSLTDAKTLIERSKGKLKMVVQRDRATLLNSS

Assay [6] deals with T6, GST-KIAA0147 PDZ domain 3 (Homo sapiens (Human)), Q14160.
T6 chain: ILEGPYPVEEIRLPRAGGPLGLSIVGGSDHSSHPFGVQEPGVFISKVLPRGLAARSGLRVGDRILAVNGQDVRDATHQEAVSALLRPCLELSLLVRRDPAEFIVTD

Assay [7] addresses GST-KIAA1634 PDZ domain 4 (Homo sapiens (Human)), Q5TCQ9.
The target of assay [8] is T7, GST-INADL PDZ domain 5 (Homo sapiens (Human)), Q8NI35.
T7 chain: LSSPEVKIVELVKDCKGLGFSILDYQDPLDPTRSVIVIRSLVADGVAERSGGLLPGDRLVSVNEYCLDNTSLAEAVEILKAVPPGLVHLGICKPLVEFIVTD

Assay [9] deals with T8, GST-NeDLG PDZ domain 3 (Mus musculus (Mouse)), P70175.
T8 chain: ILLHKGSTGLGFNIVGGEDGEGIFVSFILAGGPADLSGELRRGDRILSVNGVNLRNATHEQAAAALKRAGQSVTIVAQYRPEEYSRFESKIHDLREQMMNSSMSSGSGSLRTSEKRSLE

Assay [10] concerns the target GST-PSD95 PDZ domains 1, 2, 3 (Homo sapiens), P78352.
For assay [11], the target named is GST-DLG1 PDZ domains 1, 2 (Homo sapiens), Q12959.
Assay [12] has as its target T9, GST-NOS1 PDZ domain 1 (Homo sapiens (Human)), P29475.
T9 chain: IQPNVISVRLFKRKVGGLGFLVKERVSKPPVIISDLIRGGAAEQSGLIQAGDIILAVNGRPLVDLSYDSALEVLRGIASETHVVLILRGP

Assay [13] addresses T10, GST-NeDLG PDZ domains 1, 2, Q92796.
T10 chain: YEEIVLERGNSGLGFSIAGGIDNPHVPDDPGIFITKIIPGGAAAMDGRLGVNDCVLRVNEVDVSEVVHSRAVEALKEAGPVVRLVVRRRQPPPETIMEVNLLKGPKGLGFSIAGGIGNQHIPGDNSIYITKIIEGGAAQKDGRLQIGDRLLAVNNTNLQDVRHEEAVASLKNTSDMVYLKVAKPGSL

The target in assay [14] is GST-DLG1 PDZ domain 1 (Homo sapiens), Q12959.
Assay [15] has as its target GST-KIAA0147 PDZ domain 1 (Homo sapiens (Human)), Q14160.
Assay [16] concerns the target T11, GST-MUPP1 PDZ domain 5 (Homo sapiens (Human)), O75970.
T11 chain: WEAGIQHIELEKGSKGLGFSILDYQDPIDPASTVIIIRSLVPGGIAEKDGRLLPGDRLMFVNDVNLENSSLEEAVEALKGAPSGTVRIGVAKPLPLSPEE

Assay [17] deals with GST-Atrophin-1 Interacting Protein PDZ domain 1 (Rattus norvegicus (Rat)), O88382.
For assay [18], the target named is GST-BAI-1 Associated Protein PDZ domain 3 (Homo sapiens (Human)), Q96QZ7.
Assay [19] deals with T12, GST-ZO-2 PDZ domain 1 (Homo sapiens (Human)), Q9UDY2.
T12 chain: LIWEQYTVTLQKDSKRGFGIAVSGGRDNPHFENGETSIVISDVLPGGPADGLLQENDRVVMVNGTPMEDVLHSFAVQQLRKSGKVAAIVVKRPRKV

The target in assay [20] is T13, GST-MUPP1 PDZ domain 11 (Homo sapiens (Human)), O75970.
T13 chain: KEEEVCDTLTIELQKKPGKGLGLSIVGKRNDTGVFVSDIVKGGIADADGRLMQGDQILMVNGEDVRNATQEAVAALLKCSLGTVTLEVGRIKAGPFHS

Assay [21] has as its target T14, GST-ZO-1 PDZ domain 1 (Rattus norvegicus (Rat)), A0A0G2.
T14 chain: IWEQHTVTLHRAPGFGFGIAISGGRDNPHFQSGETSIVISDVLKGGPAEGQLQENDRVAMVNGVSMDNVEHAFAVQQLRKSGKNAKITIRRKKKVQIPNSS

In assay [22] the target is T15, GST-PTPL1 PDZ domain 4 (Homo sapiens (Human)), Q12923.
T15 chain: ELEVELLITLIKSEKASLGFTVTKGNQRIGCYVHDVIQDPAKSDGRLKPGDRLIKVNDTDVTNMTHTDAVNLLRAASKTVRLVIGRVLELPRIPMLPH
Further: key of the grades not given here.

Chain of GST-KIAA1634 PDZ domain 4 (Homo sapiens (Human)), Q5TCQ9 (Q5TCQ9 844-945): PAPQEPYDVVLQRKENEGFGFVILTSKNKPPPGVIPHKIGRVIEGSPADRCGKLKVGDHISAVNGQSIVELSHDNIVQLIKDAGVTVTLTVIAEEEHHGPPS
Chain of GST-BAI-1 Associated Protein PDZ domain 3 (Homo sapiens (Human)), Q96QZ7 (Q96QZ7 other isoform, or with tags, fused parts or gaps): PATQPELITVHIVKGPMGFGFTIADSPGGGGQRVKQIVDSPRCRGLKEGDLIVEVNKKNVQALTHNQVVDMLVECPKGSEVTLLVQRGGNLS
Chain of GST-PSD95 PDZ domains 1, 2, 3 (Homo sapiens), P78352 (P78352 62-395): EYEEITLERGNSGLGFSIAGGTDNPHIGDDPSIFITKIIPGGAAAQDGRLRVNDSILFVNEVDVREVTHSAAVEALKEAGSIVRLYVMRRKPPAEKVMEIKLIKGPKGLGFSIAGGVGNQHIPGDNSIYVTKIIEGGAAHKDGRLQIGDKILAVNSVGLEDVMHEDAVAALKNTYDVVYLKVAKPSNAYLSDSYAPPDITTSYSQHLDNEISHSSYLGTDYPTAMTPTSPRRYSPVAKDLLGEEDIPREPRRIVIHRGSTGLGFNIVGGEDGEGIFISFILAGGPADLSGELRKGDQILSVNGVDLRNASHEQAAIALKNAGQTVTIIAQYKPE
Chain of GST-KIAA0147 PDZ domain 1 (Homo sapiens (Human)), Q14160 (Q14160 other isoform, or with tags, fused parts or gaps): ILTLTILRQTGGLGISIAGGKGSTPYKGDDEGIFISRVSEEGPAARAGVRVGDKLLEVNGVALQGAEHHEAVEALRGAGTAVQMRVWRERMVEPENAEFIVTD
Chain of GST-Atrophin-1 Interacting Protein PDZ domain 1 (Rattus norvegicus (Rat)), O88382 (O88382 408-511): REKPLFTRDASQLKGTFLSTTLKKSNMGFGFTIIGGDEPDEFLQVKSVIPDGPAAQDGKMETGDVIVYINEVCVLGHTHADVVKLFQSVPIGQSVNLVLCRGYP

B1: alpha-2A Adrenergic receptor (peptide)
peptide: HDFRRAFKKILARGDRKRIV
modifications: not checked
For B1, the Classification in assay [1] was determined as 2 A450 class; in assay [2], 1 A450 class; in assay [3] it was 1 A450 class; in assay [4], 1 A450 class; in assay [5] it was 4 A450 class.

B2: NMDA Glutamate Receptor 2C (cysteine-free) (peptide)
peptide: TQGFPGPATWRRISSLESEV
modifications: not checked
With B2, the Classification in assay [6] amounted to 1 A450 class; in assay [7], 1 A450 class; in [8], 1 A450 class; in assay [9], 1 A450 class; in assay [10], 5 A450 class; in [11], 5 A450 class. The Classification in assay [12] was 1 A450 class; in assay [13] it was 5 A450 class; in [14] it was 5 A450 class; in assay [15] it was 5 A450 class; in [16] it was 1 A450 class; in assay [17], 5 A450 class. Also, the Classification in assay [18] was determined as 1 A450 class; in assay [4], 5 A450 class.

B3: LPAP (peptide)
peptide: AWDDSARAAGGQGLHVTAL
modifications: not checked
Regarding B3, the Classification in assay [12] (remark: other sources report otherwise) is 1 A450 class; in assay [15] it was 3 A450 class.

B4: ephrin B2 (peptide)
peptide: ILNSIQVMRAQMNQIQSVEV
modifications: not checked
Regarding B4, the Classification worked out at 1 A450 class in assay [1]; 1 A450 class in [9]; 1 A450 class in [19]; 1 A450 class in assay [2]; 1 A450 class in assay [3]; 2 A450 class in [20]. Further, the Classification amounted to 3 A450 class in assay [21], 2 A450 class in [22] and 2 A450 class in assay [5].

B5: CSPG4 (chondroitin sulfae proteoglycan 4, melanoma-associated) (peptide)
peptide: ELLQFCRTPNPALKNGQYWV
modifications: not checked
Regarding B5, the Classification was 1 A450 class in assay [1]; 5 A450 class in assay [8]; 5 A450 class in assay [19]; 2 A450 class in assay [12]; 2 A450 class in [2]; 2 A450 class in [3]. Moreover, the Classification is 5 A450 class in [20]; 5 A450 class in assay [16]; 1 A450 class in assay [17]; 5 A450 class in [21]; 5 A450 class in assay [22]; 4 A450 class in assay [5].

B6: AdenoE4 typ9 (peptide)
peptide: VGTLLLERVIFPSVKIATLV
modifications: not checked
For B6, the Classification in [7] was 4 A450 class; in assay [10], 5 A450 class; in assay [11], 5 A450 class; in [19] it was 3 A450 class; in assay [12], 5 A450 class; in [13], 5 A450 class. Besides, the Classification in assay [14] was found to be 4 A450 class; in assay [20], 5 A450 class; in [17], 5 A450 class; in assay [18] it was 5 A450 class; in assay [21], 2 A450 class; in [22], 4 A450 class.

B7: a-actinin 2 (peptide)
peptide: VPGALDYAAFSSALYGESDL
modifications: not checked
Regarding B7, the Classification amounted to 3 A450 class in assay [6], 1 A450 class in [11] and 2 A450 class in [15].

B8: TAX (peptide)
peptide: QISPGGLEPPSEKHFRETEV
modifications: not checked
Turning to B8, the Classification was 1 A450 class in assay [6]; 2 A450 class in [7]; 5 A450 class in assay [9]; 5 A450 class in assay [10]; 5 A450 class in assay [11]; 5 A450 class in assay [13]. In addition, the Classification in [14] turned out to be 5 A450 class; in assay [15] it was 5 A450 class; in assay [17], 5 A450 class; in assay [18], 1 A450 class; in [4], 5 A450 class.

B9: MINT-1 (peptide)
peptide: KTMPAAMYRLLTAQEQPVYI
modifications: not checked
In the case of B9, the Classification was determined as 4 A450 class in [12]; 3 A450 class in assay [3]; 5 A450 class in assay [20]; 2 A450 class in assay [16]; 1 A450 class in assay [21]; 5 A450 class in assay [22].

B10: catenin - delta 2 (peptide)
peptide: PYSELNYETSHYPASPDSWV
modifications: not checked
On to B10, for which the Classification is 1 A450 class in assay [8]; 1 A450 class in assay [9]; 2 A450 class in assay [10]; 3 A450 class in assay [11]; 1 A450 class in assay [14]; 1 A450 class in assay [18]. The same molecule registered a Classification in assay [22] of 1 A450 class.

B11: KIA 1481 (peptide)
peptide: PIPAGGCTFSGIFPTLTSPL
modifications: not checked
Turning to B11, the Classification in assay [8] stood at 1 A450 class; in [15] it was 2 A450 class.
